Target: Groundnut bud necrosis virus nucleocapsid (N) protein, full-length, hexa-histidine-tagged (Groundnut bud necrosis virus, strain GBNV-To(K))
Assay: SEC

Groundnut bud necrosis virus nucleocapsid (N) protein, full-length, hexa-histidine-tagged (natural protein)
stoichiometry N: 4
